Experimental data: patent US20260070960A1 (US Dept. of Health and Human Services, published 2026)

Tests used:
[1] = target: T1, E7 peptide (…) in complex with HLA-A*02:01 on T2 cells (human; human papillomavirus (HPV)); assay: FACS on 293E7 cells, APC-anti-Flag; nanobody concentration not given
T1 construct: whole, on cells

[2] = target: pMHC-E6, HLA-A*02:01-[…] monomer (refolded, soluble) (human; human papillomavirus (HPV))

B1: single-domain antibody F5 (camel VHH nanobody) (VHH)
VHH: EVQLVESGGGSVQAGGSLRLSCAASGFTFSNNRMGWVRQAPGKGLEWVSDINSSGGVTEYADSVKGRFTISRDNAKNTLYLQLNSLKIEDTAIYYCVYYSYLMRLRPGQGTQVTVSS
notes: also called VHH F5; nanobody F5
In the case of B1, the binding result [1] is reported as “no binding” and the Kd [2] is reported as 1500 nM.

B2: single-domain antibody G9 (camel VHH nanobody) (VHH)
VHH: EVQLVESGGGLVQPGGSLRLSCVASGFTFSNNRMGWVRQAPGKGLEWVSDINSSGGVTEYADSVKGRFTISRDNAKNTLYLQLNSLKIEDTAIYYCVYYSYLMRLRPGQGTQVTVSS
notes: also called nanobody G9
B2: no binding [1].
